We go through 7 molecules from article PMC1140370.

Where two headings read alike, the source gives them in different places.

Holding throughout (experiment): EMSA
(In general: Mobility shift assays separate free from complexed probe on a gel.)

In data set [1] the target is T1, Mcm4/6/7 complex (mouse, UniProt P49717;Q61881;P97311 1-862;1-719;1-821).
Data set [2] concerns the target T1, Mcm4/6/7 complex. This is another data set of the same source.
Data set [3] has as its target T1, Mcm4/6/7 complex. The source holds these as a separate data set.
In data set [4] the target is T1, Mcm4/6/7 complex. The source holds these as a separate data set.
Data set [5] has as its target T1, Mcm4/6/7 complex. The source holds these as a separate data set.

T1 sequence (P49717 whole entry, chain 1 of 3): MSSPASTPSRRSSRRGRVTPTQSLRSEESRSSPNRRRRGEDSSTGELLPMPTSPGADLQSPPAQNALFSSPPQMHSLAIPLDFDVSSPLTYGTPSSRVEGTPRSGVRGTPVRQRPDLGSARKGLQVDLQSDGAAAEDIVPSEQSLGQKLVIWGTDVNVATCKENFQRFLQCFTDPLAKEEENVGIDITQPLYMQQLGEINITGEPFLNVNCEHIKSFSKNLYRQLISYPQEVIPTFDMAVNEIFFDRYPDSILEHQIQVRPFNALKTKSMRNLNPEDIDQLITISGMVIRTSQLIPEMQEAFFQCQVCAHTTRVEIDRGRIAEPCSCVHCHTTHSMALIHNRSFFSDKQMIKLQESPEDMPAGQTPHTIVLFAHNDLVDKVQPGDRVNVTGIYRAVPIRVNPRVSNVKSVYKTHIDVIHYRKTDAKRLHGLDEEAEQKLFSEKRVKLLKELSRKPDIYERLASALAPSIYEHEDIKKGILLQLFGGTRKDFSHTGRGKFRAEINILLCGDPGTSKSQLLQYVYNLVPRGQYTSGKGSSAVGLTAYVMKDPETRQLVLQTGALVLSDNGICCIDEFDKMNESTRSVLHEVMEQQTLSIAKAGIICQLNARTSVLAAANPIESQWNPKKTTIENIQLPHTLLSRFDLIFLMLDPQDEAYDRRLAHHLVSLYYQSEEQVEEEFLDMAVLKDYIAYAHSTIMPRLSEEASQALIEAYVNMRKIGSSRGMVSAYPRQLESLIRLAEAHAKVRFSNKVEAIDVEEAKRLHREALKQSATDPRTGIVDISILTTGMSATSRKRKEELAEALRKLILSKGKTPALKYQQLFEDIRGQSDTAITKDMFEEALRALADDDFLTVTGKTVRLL
T1 sequence (Q61881 whole entry, chain 2 of 3): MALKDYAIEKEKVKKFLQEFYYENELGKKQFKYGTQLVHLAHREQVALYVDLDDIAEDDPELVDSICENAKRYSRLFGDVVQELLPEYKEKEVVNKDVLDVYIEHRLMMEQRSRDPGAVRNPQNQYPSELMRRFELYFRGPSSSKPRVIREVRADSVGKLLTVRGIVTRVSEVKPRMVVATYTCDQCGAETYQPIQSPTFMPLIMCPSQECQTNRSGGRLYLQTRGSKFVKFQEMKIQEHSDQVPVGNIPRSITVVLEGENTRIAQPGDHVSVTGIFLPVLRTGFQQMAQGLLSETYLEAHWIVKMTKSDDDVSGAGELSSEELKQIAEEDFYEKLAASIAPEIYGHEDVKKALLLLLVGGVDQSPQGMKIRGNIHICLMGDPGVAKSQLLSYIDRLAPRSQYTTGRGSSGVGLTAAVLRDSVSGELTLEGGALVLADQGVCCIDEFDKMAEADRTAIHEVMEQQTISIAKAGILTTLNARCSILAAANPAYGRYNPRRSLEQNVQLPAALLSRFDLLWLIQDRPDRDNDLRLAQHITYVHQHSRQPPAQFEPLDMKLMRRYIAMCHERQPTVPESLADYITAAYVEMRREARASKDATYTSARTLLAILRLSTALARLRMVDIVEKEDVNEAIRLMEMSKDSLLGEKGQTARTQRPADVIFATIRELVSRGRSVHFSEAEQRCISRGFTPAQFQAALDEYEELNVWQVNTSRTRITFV
T1 sequence (P97311 whole entry, chain 3 of 3): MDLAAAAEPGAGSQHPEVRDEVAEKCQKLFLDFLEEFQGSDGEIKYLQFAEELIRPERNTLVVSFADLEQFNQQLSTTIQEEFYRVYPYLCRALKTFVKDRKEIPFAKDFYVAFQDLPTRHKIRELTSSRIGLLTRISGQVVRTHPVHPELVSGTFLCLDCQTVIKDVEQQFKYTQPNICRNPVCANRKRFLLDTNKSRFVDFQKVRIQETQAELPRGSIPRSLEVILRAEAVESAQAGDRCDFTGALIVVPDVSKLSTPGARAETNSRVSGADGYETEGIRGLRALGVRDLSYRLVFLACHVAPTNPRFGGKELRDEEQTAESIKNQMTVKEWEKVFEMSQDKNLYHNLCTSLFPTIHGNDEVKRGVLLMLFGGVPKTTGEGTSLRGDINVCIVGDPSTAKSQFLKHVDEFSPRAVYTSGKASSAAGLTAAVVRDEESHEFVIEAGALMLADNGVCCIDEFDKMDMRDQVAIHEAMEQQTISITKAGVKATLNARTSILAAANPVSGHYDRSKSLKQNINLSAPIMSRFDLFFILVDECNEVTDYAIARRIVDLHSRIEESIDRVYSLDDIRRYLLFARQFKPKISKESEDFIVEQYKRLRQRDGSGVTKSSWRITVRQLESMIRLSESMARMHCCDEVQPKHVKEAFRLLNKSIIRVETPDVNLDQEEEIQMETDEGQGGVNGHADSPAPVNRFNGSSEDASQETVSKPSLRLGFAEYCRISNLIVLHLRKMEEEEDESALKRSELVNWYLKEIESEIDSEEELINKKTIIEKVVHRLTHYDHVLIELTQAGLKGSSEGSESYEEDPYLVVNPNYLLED

B1: Bub-T30 (mixed)
DNA 1: GTTTTCCCAGTCACGACGTTGTAAAACGACTTTTTTTTTTTTTTTTTTTTTTTTTTTTTTTACCGAGCTCGAATTCGTAATCATGGTCAT
DNA 2: ATGACCATGATTACGAATTCGAGCTCGGTATTTTTTTTTTTTTTTTTTTTTTTTTTTTTTGTCGTTTTACAACGTCGTGACTGGGAAAAC
As to B1, the binding result with Mcm4/6/7 complex [1] is given as “binds”.

B2: Bub-T40 (mixed)
DNA 1: GTTTTCCCAGTCACGACGTTGTAAAACGACTTTTTTTTTTTTTTTTTTTTTTTTTTTTTTTTTTTTTTTTTACCGAGCTCGAATTCGTAATCATGGTCAT
DNA 2: ATGACCATGATTACGAATTCGAGCTCGGTATTTTTTTTTTTTTTTTTTTTTTTTTTTTTTTTTTTTTTTTGTCGTTTTACAACGTCGTGACTGGGAAAAC
For the molecule B2, the binding result in the data set with Mcm4/6/7 complex [2] is given as “binds”.

B3: 3' dT50-extension (mixed)
DNA 1: GTTTTCCCAGTCACGACGTTGTAAAACGACGGCCAGTTTTTTTTTTTTTTTTTTTTTTTTTTTTTTTTTTTTTTTTTTTTTTTTTTT
DNA 2: ACTGGCCGTCGTTTTACAACGTCGTGACTGGGAAAAC
As to B3, the binding result in the data set with Mcm4/6/7 complex [3] was “binds”.

B4: A-fork[3'] (mixed)
DNA 1: CGCATCGCCCACCTGCCTCTGGTGGAGGAGCTGCGTGCACTGAGGCAGTTGCACCTGAACCAGCTGATCCGTGCCGCTGGCGTGGTGGCCGCCTGCGCCGGAGTC
DNA 2: GGGTGAACCTGCAGGTGGGCAAAGATGTCCTAGCAAGGCACTGGTAGAATGGTGCAACTGCCTCAGTGCACGCAGCTCCTCCACCAGAGGCAGGTGGGCGATGCG
DNA 3: GACTCCGGCGCAGGCGGCCACCACGCCAGCGGCACGGATCAGCTGGTTCA
Take B4: in the data set with Mcm4/6/7 complex [4], the binding result is “binds”.

B5: A-fork[5'] (mixed)
DNA 1: CGCATCGCCCACCTGCCTCTGGTGGAGGAGCTGCGTGCACTGAGGCAGTTGCACCTGAACCAGCTGATCCGTGCCGCTGGCGTGGTGGCCGCCTGCGCCGGAGTC
DNA 2: GGGTGAACCTGCAGGTGGGCAAAGATGTCCTAGCAAGGCACTGGTAGAATGGTGCAACTGCCTCAGTGCACGCAGCTCCTCCACCAGAGGCAGGTGGGCGATGCG
DNA 3: ATTCTACCAGTGCCTTGCTAGGACATCTTTGCCCACCTGCAGGTTCACCC
B5: in the data set with Mcm4/6/7 complex [4], the binding result is reported as “binds”.

B6: Bub-T20 (mixed)
DNA 1: GTTTTCCCAGTCACGACGTTGTAAAACGACTTTTTTTTTTTTTTTTTTTTTACCGAGCTCGAATTCGTAATCATGGTCAT
DNA 2: ATGACCATGATTACGAATTCGAGCTCGGTATTTTTTTTTTTTTTTTTTTTGTCGTTTTACAACGTCGTGACTGGGAAAAC
In the case of B6, the binding result in the data set with Mcm4/6/7 complex [5] is given as “binds”.

B7: Bub-T50 (mixed)
DNA 1: GTTTTCCCAGTCACGACGTTGTAAAACGACTTTTTTTTTTTTTTTTTTTTTTTTTTTTTTTTTTTTTTTTTTTTTTTTTTTACCGAGCTCGAATTCGTAATCATGGTCAT
DNA 2: ATGACCATGATTACGAATTCGAGCTCGGTATTTTTTTTTTTTTTTTTTTTTTTTTTTTTTTTTTTTTTTTTTTTTTTTTTGTCGTTTTACAACGTCGTGACTGGGAAAAC
Take B7: the binding result with Mcm4/6/7 complex [2] is listed as “binds”.
